Patent publication US20120316071A1 (published 2012)

B1: Fab VH1-46_IGHD6-6*01_IGHJ1*01 S102A/S103P/S104F/H111F & L6_IGKJ1*01 S28N/S30D/S31H S52T (Fab, V domains shown)
VH: QVQLVQSGAEVKKPGASVKVSCKASGYTFTSYYMHWVRQAPGQGLEWMGIINPSGGSTSYAQKFQGRVTMTRDTSTSTVYMELSSLRSEDTAVYYCAREEYAPFSAEYFQFWGQGTLVTVSS
VL: EIVLTQSPATLSLSPGERATLSCRASQNVDHYLAWYQQKPGQAPRLLIYDATNRATGIPARFSGSGSGTDFTLTISSLEPEDFAVYYCQQRSNWPPWTFGQGTKVEIKR
notes: Fab with CH1 (plasmid A, His6 and Flag tags) and kappa CL (plasmid C); also called H:APFF & L:NDH S52T
B2: Fab VH1-46_IGHD6-6*01_IGHJ1*01 S102A/S103P/S104F/H111F N52L/S54T/G56H & L6_IGKJ1*01 S28N/S30D/S31H S52L/A55G (Fab, V domains shown)
VH: QVQLVQSGAEVKKPGASVKVSCKASGYTFTSYYMHWVRQAPGQGLEWMGIILPTGHSTSYAQKFQGRVTMTRDTSTSTVYMELSSLRSEDTAVYYCAREEYAPFSAEYFQFWGQGTLVTVSS
VL: EIVLTQSPATLSLSPGERATLSCRASQNVDHYLAWYQQKPGQAPRLLIYDALNRGTGIPARFSGSGSGTDFTLTISSLEPEDFAVYYCQQRSNWPPWTFGQGTKVEIKR
notes: Fab expressed in E. coli: VH joined to CH1 from Plasmid A (His6 and Flag tags), VL joined to kappa CL from Plasmid C; also called H:APFF LTH & L:NDH LG
B3: Fab VH1-46_IGHD6-6*01_IGHJ1*01 S102A/S103P/S104F/H111F I51V/N52L/S54T/G56H & L6_IGKJ1*01 S28N/S30D/S31H (Fab, V domains shown)
VH: QVQLVQSGAEVKKPGASVKVSCKASGYTFTSYYMHWVRQAPGQGLEWMGIVLPTGHSTSYAQKFQGRVTMTRDTSTSTVYMELSSLRSEDTAVYYCAREEYAPFSAEYFQFWGQGTLVTVSS
VL: EIVLTQSPATLSLSPGERATLSCRASQNVDHYLAWYQQKPGQAPRLLIYDASNRATGIPARFSGSGSGTDFTLTISSLEPEDFAVYYCQQRSNWPPWTFGQGTKVEIKR
notes: Fab expressed in E. coli: VH joined to CH1 from Plasmid A (His6 and Flag tags), VL joined to kappa CL from Plasmid C; also called H:APFF VLTH & L:NDH
B4: Fab VH1-46_IGHD6-6*01_IGHJ1*01 S102A/S103P/S104F/H111F & L6_IGKJ1*01 S28N/S30D/S31H S52W (Fab, V domains shown)
VH: QVQLVQSGAEVKKPGASVKVSCKASGYTFTSYYMHWVRQAPGQGLEWMGIINPSGGSTSYAQKFQGRVTMTRDTSTSTVYMELSSLRSEDTAVYYCAREEYAPFSAEYFQFWGQGTLVTVSS
VL: EIVLTQSPATLSLSPGERATLSCRASQNVDHYLAWYQQKPGQAPRLLIYDAWNRATGIPARFSGSGSGTDFTLTISSLEPEDFAVYYCQQRSNWPPWTFGQGTKVEIKR
notes: Fab with CH1 (plasmid A, His6 and Flag tags) and kappa CL (plasmid C); also called H:APFF & L:NDH S52W
B5: Fab VH1-46_IGHD6-6*01_IGHJ1*01 S102A/S103P/S104F/H111F I51A/N52L/S54T/G56H & L6_IGKJ1*01 S28N/S30D/S31H S52L/A55G (Fab, V domains shown)
VH: QVQLVQSGAEVKKPGASVKVSCKASGYTFTSYYMHWVRQAPGQGLEWMGIALPTGHSTSYAQKFQGRVTMTRDTSTSTVYMELSSLRSEDTAVYYCAREEYAPFSAEYFQFWGQGTLVTVSS
VL: EIVLTQSPATLSLSPGERATLSCRASQNVDHYLAWYQQKPGQAPRLLIYDALNRGTGIPARFSGSGSGTDFTLTISSLEPEDFAVYYCQQRSNWPPWTFGQGTKVEIKR
notes: Fab expressed in E. coli: VH joined to CH1 from Plasmid A (His6 and Flag tags), VL joined to kappa CL from Plasmid C; also called H:APFF ALTH & L:NDH LG
B6: Fab VH1-46_IGHD6-6*01_IGHJ1*01 S102A/S103P/S104F/H111F N52L/S54T/G56H & L6_IGKJ1*01 S28N/S30D/S31H (Fab, V domains shown)
VH: QVQLVQSGAEVKKPGASVKVSCKASGYTFTSYYMHWVRQAPGQGLEWMGIILPTGHSTSYAQKFQGRVTMTRDTSTSTVYMELSSLRSEDTAVYYCAREEYAPFSAEYFQFWGQGTLVTVSS
VL: EIVLTQSPATLSLSPGERATLSCRASQNVDHYLAWYQQKPGQAPRLLIYDASNRATGIPARFSGSGSGTDFTLTISSLEPEDFAVYYCQQRSNWPPWTFGQGTKVEIKR
notes: Fab expressed in E. coli: VH joined to CH1 from Plasmid A (His6 and Flag tags), VL joined to kappa CL from Plasmid C; also called H:APFF LTH & L:NDH
B7: Fab VH1-46_IGHD6-6*01_IGHJ1*01 S102A/S103P/S104F/H111F I51A/N52L/S54T/G56H & L6_IGKJ1*01 S28N/S30D/S31H (Fab, V domains shown)
VH: QVQLVQSGAEVKKPGASVKVSCKASGYTFTSYYMHWVRQAPGQGLEWMGIALPTGHSTSYAQKFQGRVTMTRDTSTSTVYMELSSLRSEDTAVYYCAREEYAPFSAEYFQFWGQGTLVTVSS
VL: EIVLTQSPATLSLSPGERATLSCRASQNVDHYLAWYQQKPGQAPRLLIYDASNRATGIPARFSGSGSGTDFTLTISSLEPEDFAVYYCQQRSNWPPWTFGQGTKVEIKR
notes: Fab expressed in E. coli: VH joined to CH1 from Plasmid A (His6 and Flag tags), VL joined to kappa CL from Plasmid C; also called H:APFF ALTH & L:NDH
B8: Fab VH1-46_IGHD6-6*01_IGHJ1*01 S102A/S103P/S104F/H111F I51V/N52L/S54T/G56H & L6_IGKJ1*01 S28N/S30D/S31H S52L/A55G (Fab, V domains shown)
VH: QVQLVQSGAEVKKPGASVKVSCKASGYTFTSYYMHWVRQAPGQGLEWMGIVLPTGHSTSYAQKFQGRVTMTRDTSTSTVYMELSSLRSEDTAVYYCAREEYAPFSAEYFQFWGQGTLVTVSS
VL: EIVLTQSPATLSLSPGERATLSCRASQNVDHYLAWYQQKPGQAPRLLIYDALNRGTGIPARFSGSGSGTDFTLTISSLEPEDFAVYYCQQRSNWPPWTFGQGTKVEIKR
notes: Fab expressed in E. coli: VH joined to CH1 from Plasmid A (His6 and Flag tags), VL joined to kappa CL from Plasmid C; also called H:APFF VLTH & L:NDH LG
B9: Fab VH1-46_IGHD6-6*01_IGHJ1*01 S102A/S103P/S104F/H111F I51V/N52L/S54T/G56H & L6_IGKJ1*01 S28N/S30D/S31H S52L/A55S (Fab, V domains shown)
VH: QVQLVQSGAEVKKPGASVKVSCKASGYTFTSYYMHWVRQAPGQGLEWMGIVLPTGHSTSYAQKFQGRVTMTRDTSTSTVYMELSSLRSEDTAVYYCAREEYAPFSAEYFQFWGQGTLVTVSS
VL: EIVLTQSPATLSLSPGERATLSCRASQNVDHYLAWYQQKPGQAPRLLIYDALNRSTGIPARFSGSGSGTDFTLTISSLEPEDFAVYYCQQRSNWPPWTFGQGTKVEIKR
notes: Fab expressed in E. coli: VH joined to CH1 from Plasmid A (His6 and Flag tags), VL joined to kappa CL from Plasmid C; also called H:APFF VLTH & L:NDH LS
B10: Fab VH1-46_IGHD6-6*01_IGHJ1*01 S102A/S103P/S104F/H111F I51A/N52L/S54T/G56H & L6_IGKJ1*01 S28N/S30D/S31H S52L/A55S (Fab, V domains shown)
VH: QVQLVQSGAEVKKPGASVKVSCKASGYTFTSYYMHWVRQAPGQGLEWMGIALPTGHSTSYAQKFQGRVTMTRDTSTSTVYMELSSLRSEDTAVYYCAREEYAPFSAEYFQFWGQGTLVTVSS
VL: EIVLTQSPATLSLSPGERATLSCRASQNVDHYLAWYQQKPGQAPRLLIYDALNRSTGIPARFSGSGSGTDFTLTISSLEPEDFAVYYCQQRSNWPPWTFGQGTKVEIKR
notes: Fab expressed in E. coli: VH joined to CH1 from Plasmid A (His6 and Flag tags), VL joined to kappa CL from Plasmid C; also called H:APFF ALTH & L:NDH LS
B11: Fab VH1-46_IGHD6-6*01_IGHJ1*01 S102A/S103P/S104F/H111F N52L/S54T/G56H & L6_IGKJ1*01 S28N/S30D/S31H S52L/A55S (Fab, V domains shown)
VH: QVQLVQSGAEVKKPGASVKVSCKASGYTFTSYYMHWVRQAPGQGLEWMGIILPTGHSTSYAQKFQGRVTMTRDTSTSTVYMELSSLRSEDTAVYYCAREEYAPFSAEYFQFWGQGTLVTVSS
VL: EIVLTQSPATLSLSPGERATLSCRASQNVDHYLAWYQQKPGQAPRLLIYDALNRSTGIPARFSGSGSGTDFTLTISSLEPEDFAVYYCQQRSNWPPWTFGQGTKVEIKR
notes: Fab expressed in E. coli: VH joined to CH1 from Plasmid A (His6 and Flag tags), VL joined to kappa CL from Plasmid C; also called H:APFF LTH & L:NDH LS
B12: Fab VH5-51_IGHD5-18*01>3_IGHJ4*01 G100D & V3-4_IGLJ1*01 (Fab, V domains shown)
VH: EVQLVQSGAEVKKPGESLKISCKGSGYSFTSYWIGWVRQMPGKGLEWMGIIYPGDSDTRYSPSFQGQVTISADKSISTAYLQWSSLKASDTAMYYCARRDYSYGYDYFDYWGQGTLVTVSS
VL: QTVVTQEPSFSVSPGGTVTLTCGLSSGSVSTSYYPSWYQQTPGQAPRTLIYSTNTRSSGVPDRFSGSILGNKAALTITGAQADDESDYYCVLYMGSGISYVFGTGTKVTVL
notes: Fab; VH-CH1 (His6/Flag, Plasmid A) and VL-lambda CL (Plasmid E)
B13: Fab VH5-51_IGHD5-18*01>3_IGHJ4*01 G100K & V3-4_IGLJ1*01 (Fab, V domains shown)
VH: EVQLVQSGAEVKKPGESLKISCKGSGYSFTSYWIGWVRQMPGKGLEWMGIIYPGDSDTRYSPSFQGQVTISADKSISTAYLQWSSLKASDTAMYYCARRKYSYGYDYFDYWGQGTLVTVSS
VL: QTVVTQEPSFSVSPGGTVTLTCGLSSGSVSTSYYPSWYQQTPGQAPRTLIYSTNTRSSGVPDRFSGSILGNKAALTITGAQADDESDYYCVLYMGSGISYVFGTGTKVTVL
notes: as for B12

Columns and labels:
[1] = biological target: T1, Recombinant Human DLL4 (delta-like protein 4) (human, UniProt Q9NR61 27-529); test: 96-well plate ECL binding assay, DLL4 immobilised, Fab in solution
T1 construct: Bought recombinant human DLL4 (R&D Systems Cat#1506-D4/CF); also called rHuman DLL4; Delta-like 4

[2] = biological target: T1, Recombinant Human DLL4 (delta-like …); test: ELISA, DLL4 coated on plate, Fab in solution, absorbance at 450 nm
[3] = biological target: T2, Recombinant Human DLL4 (human, UniProt Q9NR61 27-524); test: ELISA on plate-coated DLL4, Fab at 20 nM (3-fold serial dilution)
T2 construct: Bought recombinant human DLL4 (R&D Systems 1506-D4/CF); also called delta-like protein 4; rHuman DLL4

[4] = biological target: T2, Recombinant Human DLL4; test: ELISA on plate-coated DLL4, Fab at 0.74 nM (3-fold serial dilution)
[5] = biological target: T2, Recombinant Human DLL4; test: ELISA on plate-coated DLL4, Fab at 2.22 nM (3-fold serial dilution)
[6] = biological target: T2, Recombinant Human DLL4; test: ELISA on plate-coated DLL4, Fab at 6.67 nM (3-fold serial dilution)
[7] = biological target: T2, Recombinant Human DLL4; test: ECL (MSD) binding assay, Fab on immobilised recombinant human DLL4; Fab concentration not given in the table
[8] = biological target: T3, Recombinant Human DLL4 (human, UniProt Q9NR61 27-524); test: ECL (MSD) 96-well plate assay, DLL4 coated at 30 ug/mL, Fab 0.1 uM; signal over blank
T3 construct: Bought recombinant human DLL4 (R&D Systems Cat#1506-D4/CF), coated on the plate; also called delta-like protein 4; rHuman DLL4

[9] = biological target: T3, Recombinant Human DLL4; test: ECL (MSD) 96-well plate assay, DLL4 coated at 15 ug/mL, Fab 0.02 uM; signal over blank

ECL signal [1]	ELISA (Avgerage signal-noise) [2]	ELISA signal [3]	ELISA signal [4]	ELISA signal [5]	ELISA signal [6]	ECL signal [7]	Signal/Noise [8]	Signal/Noise [9]	Binder
20100	0.263	–	–	–	–	–	–	–	B1
–	–	1.01	0.368	0.594	0.88	9010	–	–	B2
–	–	0.979	0.288	0.608	0.776	9790	–	–	B3
16300	0.177	–	–	–	–	–	–	–	B4
–	–	0.39	0.028	0.069	0.212	1760	–	–	B5
–	–	0.863	0.27	0.463	0.739	6020	–	–	B6
–	–	0.391	0.024	0.069	0.232	1840	–	–	B7
–	–	1.06	0.397	0.755	0.916	12200	–	–	B8
–	–	0.91	0.263	0.523	0.747	8000	–	–	B9
–	–	0.458	0.046	0.04	0.282	3720	–	–	B10
–	–	1.05	0.398	0.557	0.916	11500	–	–	B11
–	–	–	–	–	–	–	5.8	2	B12
–	–	–	–	–	–	–	134	72.6	B13
